Reference: paper PMC3462190, “A Peptidic Unconjugated GRP78/BiP Ligand Modulates the Unfolded Protein Response and Induces Prostate Cancer Cell Death” (PLoS ONE, 2012)
Where no end group is shown, it is not given here.

System: GRP78/BiP
Test: In vivo luciferase refolding assay in HEK-293 cells
Type: cell-based
Details: heat shock 45°C 30 min, relative to non-heat-shocked cells, mean of three independent experiments ± SEM
Method: In vivo refolding assay was performed essentially according to the method described by. HEK-293 in a 70%-confluent 10 cm dish were transfected with β-actin-fire fly luciferase construct (2 µg), pcMV6-GRP78 (3 µg), Bag-1 or Bag-1 peptides in pcDNA3.1-HA (6 µg) and Renilla luciferase construct (0.5 µg) for equal transfection control. Two days after transfection the cells were divided into two and incubated in heat shock buffer (MOPS 20 mM and cycloheximide 20 µg/ml) for 30 min at 37°C. One half of the transfected cells was heat shocked for 30 min at 45°C and allowed to recover at 37°C for 30 min. The other half was left untreated and used as control. At the end of the experiments, the cells were harvested, lysed and luciferase activity was measured. The activity measured for the non-heat shocked cells was set as 100% of refolded luciferase and the activity measurements of the heat shocked cells were expressed relative this value.
Figure 2 Identification of Bag-1 peptide interfering with the action of GRP78/BiP. […] Depicted in blue and red are the ubiquitin-like domain and the BAG domain respectively. B. Identification of the Bag-1 peptide binding to GRP78/BiP. […] Western blot analysis with an HA antibody to detected the Bag-1 mutants is shown. […] Thereafter luciferase activity was measured. Results are expressed as percentage of refolding activity relative to non-heat-shocked cells and presented as bar charts of the average of three independent experiments ± SEM. *p<0.05.
Figure 6 Selectivity of action of the Bag-1 peptide. […] Fluorescence polarization (FP) assays with a 10 nM FITC-labeled 7-mer Bag-1 peptide and dilutions of the GST-fused substrate binding domain of GRP78 in 60 µl of Tris-GSH buffer (50 mM Tris, 10 mM reduced glutathione and 0.1% BSA, pH 8.0). Triplicate samples were measured after 5 h of incubation at room temperature with an Infinite F-200 reader (Tecan) with excitation at 490 nm and emission at 535 nm. Binding constants were determined from three independent experiments using non-linear regression in Sigma Plot 10.0. […]

Molecule | GRP78/BiP refolding activity (luciferase)
19-mer: Bag-1L 202–220 (TPLSALGIQDGCRVMLIGK; not fully specified) | inhibited the ability of GRP78/BiP to refold denatured protein
Bag-1: cochaperone Bag-1, HA-tagged (pcDNA3.1-HA-Bag-1), or endogenous (protein, left off: HA, end not stated, kept, cochaperone Bag-1, HA-tagged (pcDNA3.1-HA-Bag-1), or endogenous) TPLSALGIQDGCRVMLIGKKNSPQEEVELKKLKHLEKSVEKIADQLEELNKELTGIQQGFLPKDLQAE | reduced to the control level
Bag-1 peptide: internal sequence of 68 amino acids of Bag-1 (Bag1-L 202–269), HA-tagged, expressed from pcDNA3 (also: HA tag, end not given here) TPLSALGIQDGCRVMLIGKKNSPQEEVELKKLKHLEKSVEKIADQLEELNKELTGIQQGFLPKDLQAE | reduced to the control level
